Among the data in patent US20260345804 (published 2026) are Kd values, retold here.

The chains are these.
T1: human IL2v G4S avi his (P1AG0879) (human)
T1 chain: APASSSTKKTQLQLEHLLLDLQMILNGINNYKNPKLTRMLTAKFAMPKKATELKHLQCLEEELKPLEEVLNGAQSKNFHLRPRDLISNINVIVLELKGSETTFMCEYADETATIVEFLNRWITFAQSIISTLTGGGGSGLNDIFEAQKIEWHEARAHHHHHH

B1: P1AI1652 PD1-376_VL2_VH4_Y60F_D62E (antibody, V domains shown)
VH: EVQLLESGGGLVQPGGSLRLSCAASGFSFSSYTMSWVRQAPGKGLEWVSAISGGGRDIYFPESVKGRFTISRDNSKNTLYLQMNSLRAEDTAVYYCVLLTGRVYFALDSWGQGTLVTVSS
VL: DIVMTQSPDSLAVSLGERATINCKASESVDTSDNSFIHWYQQKPGQSPKLLIYRASTLESGVPDRFSGSGSGTDFTLTISSLQAEDVAVYYCQQNYDVPWTFGQGTKVEIKR
B2: P1AI1648 PD1-376_VL2_VH4_I58L_D62E (antibody, V domains shown)
VH: B1 VH with I58L, F60Y
VL: B1 VL
B3: P1AI1650 PD1-376_VL2_VH4_I58T_P61A (antibody, V domains shown)
VH: B1 VH with I58T, F60Y, P61A, E62D
VL: B1 VL
B4: P1AH4157 PD1-376_VL2_VH4 (antibody, V domains shown)
VH: B1 VH with F60Y, E62D
VL: B1 VL
B5: P1AI1651 PD1-376_VL2_VH4_P61A (antibody, V domains shown)
VH: B1 VH with F60Y, P61A, E62D
VL: B1 VL
B6: P1AI1649 PD1-376_VL2_VH4_I58T (antibody, V domains shown)
VH: B1 VH with I58T, F60Y, E62D
VL: B1 VL
B7: P1AG9606 PD1 IgG-IL2v aIL2 MT204 scFv-PQARK (antibody)
chain 1: EVQLLESGGGLVQPGGSLRLSCAASGFSFSSYTMSWVRQAPGKGLEWVATISGGGRDIYYPDSVKGRFTISRDNSKNTLYLQMNSLRAEDTAVYYCVLLTGRVYFALDSWGQGTLVTVSSASTKGPSVFPLAPSSKSTSGGTAALGCLVKDYFPEPVTVSWNSGALTSGVHTFPAVLQSSGLYSLSSVVTVPSSSLGTQTYICNVNHKPSNTKVDKKVEPKSCDKTHTCPPCPAPEAAGGPSVFLFPPKPKDTLMISRTPEVTCVVVDVSHEDPEVKFNWYVDGVEVHNAKTKPREEQYNSTYRVVSVLTVLHQDWLNGKEYKCKVSNKALGAPIEKTISKAKGQPREPQVCTLPPSRDELTKNQVSLSCAVKGFYPSDIAVEWESNGQPENNYKTTPPVLDSDGSFFLVSKLTVDKSRWQQGNVFSCSVMHEALHNHYTQKSLSLSPG
chain 2: DIVMTQSPDSLAVSLGERATINCKASESVDTSDNSFIHWYQQKPGQSPKLLIYRSSTLESGVPDRFSGSGSGTDFTLTISSLQAEDVAVYYCQQNYDVPWTFGQGTKVEIKRTVAAPSVFIFPPSDEQLKSGTASVVCLLNNFYPREAKVQWKVDNALQSGNSQESVTEQDSKDSTYSLSSTLTLSKADYEKHKVYACEVTHQGLSSPVTKSFNRGEC
modifications: PD1-binding arm; immunoconjugate, knob chain SEQ59 carries masked IL2v
B8: P1AH4158 PD1-376_VL7_VH4 (antibody, V domains shown)
VH: B1 VH with F60Y, E62D
VL: B1 VL with A55E, L58Q
B9: P1AH4161 PD1-376_VL2_VH1_2_3_4 (antibody, V domains shown)
VH: B1 VH with L5V, S28T, T33A, F60Y, E62D
VL: B1 VL
B10: P1AH4159 PD1-376_VL2_7_VH4 (antibody, V domains shown)
VH: B1 VH with F60Y, E62D
VL: B1 VL with L58Q
B11: P1AH4160 PD1-376_VL7_VH1_2_4 (antibody, V domains shown)
VH: B1 VH with L5V, S28T, F60Y, E62D
VL: B1 VL with A55E, L58Q
B12: P1AA6888 one-shot humanized PD1-0103 (antibody)
chain 1: not shown
chain 2: B7 chain 2
B13: P1AF7506 OA MT204 IgG PG LALA (antibody, V domains shown)
VH: EVQLVESGGGLVQPGGSLRLSCAASGFTFSSYTLAWVRQAPGKGLEWVAAIDSSSYTYSPDTVRGRFTISRDNAKNSLYLQMNSLRAEDTAVYYCARDSNWDALDYWGQGTTVTVSS
VL: DIQMTQSPSSLSASVGDRVTITCKASQNVGTNVGWYQQKPGKAPKALIYSASFRYSGVPSRFSGSGSGTDFTLTISSLQPEDFATYYCQQYYTYPYTFGGGTKVEIKR
B14: P1AH2052 MT204_VL1b-combo VH2 & VH6 IgG PG LALA (antibody, V domains shown)
VH: B13 VH with R64K, A74S, S77T
VL: B13 VL with K24R, N28G, A46L, R54L
B15: P1AH2051 MT204_VL1a-combo VH2 & VH6 IgG PG LALA (antibody, V domains shown)
VH: B13 VH with R64K, A74S, S77T
VL: B13 VL with K24R, N28G, R54L
B16: P1AH2050 MT204_VL1-combo VH2 & VH6 IgG PG LALA (antibody, V domains shown)
VH: B13 VH with R64K, A74S, S77T
VL: B13 VL with K24R, N28G
B17: P1AI0357 PD1-1030-VH_I58T (antibody, V domains shown)
VH: B1 VH with S49A, A50T, I58T, F60Y, E62D
VL: B1 VL with A55S
B18: P1AI0359 PD1-1030-VH_P61A (antibody, V domains shown)
VH: B1 VH with S49A, A50T, F60Y, P61A, E62D
VL: B1 VL with A55S
B19: P1AI0358 PD1-1030-VH_I58T_P61A (antibody, V domains shown)
VH: B1 VH with S49A, A50T, I58T, F60Y, P61A, E62D
VL: B1 VL with A55S
B20: P1AI0360 PD1-1030-VH_Y60F_D62E (antibody, V domains shown)
VH: B1 VH with S49A, A50T
VL: B1 VL with A55S
B21: P1AI0356 PD1-1030-VH_I58L_D62E (antibody, V domains shown)
VH: B1 VH with S49A, A50T, I58L, F60Y
VL: B1 VL with A55S

Where a chain is given by its changes, count along the chain named.

In the first assay the target is huPD1-ECD_Fc-knob/hole (P1AD9704) (human). Description: SPR, 25C.
Take B1: the Kd was determined as 0.162 nM. This lies in the sub-nanomolar range. On the same count and under the same terms, the value for B2 was 0.144 nM; that for B3 was 0.127 nM; that for B4 was 0.126 nM. For B5, binding was characterised by a dissociation constant (Kd) of 0.114 nM. As for B6, the Kd amounted to 0.111 nM. B7 yielded a Kd of 0.19 nM. This Kd is about 1.7-fold higher than that of the molecule before.

The target is the same in the next assay. Description: SPR, 25C. This is another data set of the same source.
Consider B8, for which the Kd was determined as 1.5 nM. With B9, the Kd was determined as 0.4 nM. Still for that read-out and setting: the result for B10 reads 0.2 nM. Still for that read-out and setting: the result for B11 reads 1.2 nM; that for B4, 0.2 nM; that for B12, 0.2 nM.

The target in the next assay is T1, human IL2v G4S avi his (P1AG0879). The assay is described as follows: SPR, 25C.
For B13, binding was characterised by a dissociation constant (Kd) of 0.27 nM. On the same count and under the same terms, the value for B14 was 0.995 nM. As to B15, the affinity, expressed as Kd, was 0.101 nM. Compared with the last molecule, the Kd is about 9.9-fold lower. B16 yielded a Kd of 0.427 nM.

A further assay has as its target huPD1-ECD_Fc-knob/hole (P1AD9704) (human). The assay is described as follows: SPR, 25C. This is another data set of the same source.
B17 gave a Kd of 0.2 nM. The same measure, in the same setting: the result for B18 reads 0.2 nM. On the same count and under the same terms, the value for B19 was 0.3 nM. Still for that read-out and setting: the result for B20 reads 0.3 nM. Consider B21, for which the Kd is 0.2 nM.

Turning to B12, binding was put at a Kd of 0.3 nM.
